Measured values from article PMC9146136 (2022).

Target: anti-mTNFα 3B11 VNAR (soluble, purified)
Assay: BLI

koff: 2.69e-05 s⁻¹
B1: extracellular domain of mTNFα (mTNFα ECD, 77-235aa) (domain or fragment)
chain: TLTLRSSSQNSSDKPVAHVVANHQVEEQLEWLSQRANALLANGMDLKDNQLVVPADGLYLVYSQVLFKGQGCPDYVLLTHTVSRFAISYQEKVNLLSAVKSPCPKDTPEGAELKPWYEPIYLGGVFQLEKGDQLSAEVNLPKYLDFAESGQVYFGVIAL
modifications: biotin (biotin-NHS labeling reaction) in the BLI assay only
